Drawing on patent US20190292517A1, this text covers fold expansion of human T cells for three substances.

The target of the test is CD3 on human peripheral blood T cells (human) (UniProt P07766). As to the kind of experiment: cell-based or functional assay.

Take “UCHT1, monoclonal antibody recognizing a 20 kDa subunit of the TCR complex within CD3e”: the fold expansion of human T cells at day 13, 5 ug anti-CD3 on APC-MS (1:1 with anti-CD28) lay in the range of 600 to 800 fold.
Substance “HIT3a, antibody recognizing 17-19 kD epsilon-chain of CD3 within the CD3 antigen/T cell antigen receptor (TCR) complex” displayed a fold expansion of human T cells at day 13, 1 ug anti-CD3 on APC-MS (1:1 with anti-CD28) of 300 to 400 fold and a fold expansion of human T cells at day 13, 5 ug anti-CD3 on APC-MS (1:1 with anti-CD28) of 600 to 800 fold.
muromonab (OKT3), anti-CD3 antibody came in with a fold expansion of human T cells at day 13, 0.5 ug anti-CD3 on APC-MS (1:1 with anti-CD28) of 600 to 700 fold; a fold expansion of human T cells at day 13, 1 ug anti-CD3 on APC-MS (1:1 with anti-CD28) of 300 to 400 fold; a fold expansion of human T cells at day 13, 5 ug anti-CD3 on APC-MS (1:1 with anti-CD28) of 600 to 800 fold.
